From patent US20180258407

Key:
[1] = tested on: HDAC4 expressed in Saccharomyces cerevisiae from a constitutively active promoter (pNOP)
[2] = tested on: flag tagged HDAC4 (overexpressed in neonatal rat cardiomyocytes)

Substance | cleavage of HDAC4 in Saccharomyces cerevisiae, westernblot analysis [1] | HDAC4 cleavage, immunoblot [2]
ABHD5 expressed in Saccharomyces cerevisiae from a Galactose inducible promoter (pGAL) | By overexpression either together or with backbone vector in Saccharomyces cerevisiae we found cleavage of HDAC4, confirmed by westernblot analysis. | 
gfp tagged abhd5 (adenoviral overexpression in neonatal rat ventricular myocytes) |  | Overexpressed flag tagged HDAC4 was cleaved whenever gfp tagged abhd5 was coexpressed.
